Test results reported in patent US5591427A, “Human Interleukin-3(Il-3) variants and their use to promote or antagonize IL-3-mediated processes” (Medvet Science Pty. Ltd., priority 1979, dated 1997).

What was measured:
monocytes = assay: Stimulation of human monocyte adherence (51Cr adhesion assay); type: cell-based
Description: (a) Monocyte purification. Monocytes were purified from the peripheral blood of normal donors, obtained from the Adelaide Red Cross Transfusion Service, as previously described (Elliott et. al., 1990, J. Immunol., 145, 167-171). In brief, mononuclear cells were prepared by centrifugation of whole blood on lymphoprep cushions (Nyegaard, Oslo, Norway) and washed twice in HBSS, 0.02% EDTA, 0.1% heat inactivated FCS (Flow Laboratories, North Ryde, Australia) and monocytes were purified in a Beckman J-6M/E elutriator using the Sanderson chamber, a flow rate of 12 ml/min and a constant rotor speed of 2050 rpm. Cells remaining in the chamber after 30 min were collected, washed twice in HBSS, and used immediately. Using these methods, monocyte purity as assessed by morphology and nonspecific-esterase staining was always >90% and usually >95%. The major contaminating cell types were lymphocytes and granulocytes (principally basophils).
(b) Adhesion assay. Adhesion was measured by an isotopic method essentially as described (Elliott et. al., supra). In brief, purified monocytes (0.5 to 1×10^8) were resuspended in 1 ml RPMI 1640 with 0.1% FCS and antibiotics and incubated for 30 min at 37° C. with 500 μCi^51 Cr in the form of sodium chromate (Amersham International., Buckinghamshire, England). Cells were washed thrice in RPMI 1640 and resuspended in culture medium consisting of RPMI 1640, 10% FCS, antibiotics, and 0.2% sodium bicarbonate. For measurement of adhesion, 1 to 2.5×10^5 monocytes were aliquotted per well in 96-well microtitre plates (Nunc, Karnstrup, Denmark) together with stimuli or control medium to a total volume of […], and incubated for the indicated periods. […] At harvest, samples of supernatant were taken to assess spontaneous ^51 Cr release (usually <10% of cell-associated radioactivity), wells were washed three times with RPMI 1640 at 37° C., and residual adherent cells lysed in 10 mM Tris-hydrochloride, and 1% Nonident p40 detergent (Sigma). Lysates were transferred to tubes and counted in a Packard auto-gamma 5650. Percent adherence was calculated according to the formula: [formula]

[1] = biological target: T1, IL-3R α chain and β chain (Homo sapiens, UniProt P26951+P32927); assay: Competition for 125I-IL-3 binding to reconstituted IL-3 high affinity receptor (α and β chains) in COS cells
T1 construct: amplify the complete coding region of the IL-3R alpha chain; also to amplify the coding region of the IL-3R α chain; expressed in transfected cells; host or cells: COS cells (pCDM8 vector, electroporation)
T1 sequence (P26951 19-378): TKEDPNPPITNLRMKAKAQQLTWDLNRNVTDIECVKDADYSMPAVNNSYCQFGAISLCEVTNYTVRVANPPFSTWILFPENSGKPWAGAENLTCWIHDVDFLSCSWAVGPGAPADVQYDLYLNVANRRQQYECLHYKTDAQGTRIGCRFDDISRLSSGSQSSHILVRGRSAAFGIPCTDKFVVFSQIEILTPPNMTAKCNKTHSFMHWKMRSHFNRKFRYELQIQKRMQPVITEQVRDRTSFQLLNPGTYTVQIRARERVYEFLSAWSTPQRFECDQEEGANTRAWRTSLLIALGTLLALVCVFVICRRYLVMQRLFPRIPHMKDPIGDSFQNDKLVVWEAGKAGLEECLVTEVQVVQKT
T1 sequence (P32927 17-897): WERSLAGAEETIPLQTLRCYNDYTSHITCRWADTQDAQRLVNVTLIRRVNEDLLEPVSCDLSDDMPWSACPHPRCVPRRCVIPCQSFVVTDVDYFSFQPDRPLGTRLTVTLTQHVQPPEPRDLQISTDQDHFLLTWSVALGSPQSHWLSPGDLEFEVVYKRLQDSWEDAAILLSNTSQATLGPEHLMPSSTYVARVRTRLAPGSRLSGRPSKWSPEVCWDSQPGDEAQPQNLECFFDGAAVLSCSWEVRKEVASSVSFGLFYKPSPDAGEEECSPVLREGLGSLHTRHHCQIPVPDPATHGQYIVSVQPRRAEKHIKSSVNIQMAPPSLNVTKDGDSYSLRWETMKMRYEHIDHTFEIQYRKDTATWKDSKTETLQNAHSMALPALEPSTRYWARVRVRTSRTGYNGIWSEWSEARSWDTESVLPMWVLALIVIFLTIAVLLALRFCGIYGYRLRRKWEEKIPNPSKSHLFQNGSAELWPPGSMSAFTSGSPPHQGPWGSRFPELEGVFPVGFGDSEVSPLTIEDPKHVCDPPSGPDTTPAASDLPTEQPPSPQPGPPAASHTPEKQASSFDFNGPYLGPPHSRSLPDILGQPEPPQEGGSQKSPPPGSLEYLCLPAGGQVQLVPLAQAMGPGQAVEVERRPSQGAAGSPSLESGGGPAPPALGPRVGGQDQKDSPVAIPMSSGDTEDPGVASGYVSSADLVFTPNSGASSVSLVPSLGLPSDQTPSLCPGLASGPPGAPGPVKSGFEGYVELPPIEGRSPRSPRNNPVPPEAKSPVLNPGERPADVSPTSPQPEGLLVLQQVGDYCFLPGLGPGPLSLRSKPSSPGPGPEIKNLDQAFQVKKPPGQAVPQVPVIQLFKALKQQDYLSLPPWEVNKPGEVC
From the text: PolyA+ RNA was isolated from the human cord blood cell line KMT2. Oligo dT primed double stranded cDNA was synthesised and used as template for PCR amplification. The PCR primers were designed to amplify the complete coding region of the IL-3R alpha chain and also to amplify the coding region of the […]. The PCR products were cloned into the vector pGEM-2 for sequence verification, and then into the eukaryotic expression vector, pCDM8. The […]-containing plasmid was transfected into COS cells by electroporation, either on its own or in conjunction with the […], and after two days the cells were used for binding studies.

fold higher affinity than wild type IL-3 ([1]; COS cells transfected with IL-3R α chain and β chain cDNAs, E. coli produced protein): 15 fold
binding to cotransfected α and β chains ([1]; FIG. 7): higher affinity
B1: M37: human IL-3 mutant, Asp 101 replaced by Ala and Lys 116 by Val (protein, UniProt P08700 20-152, looked up, variant D101A K116V)
Interleukin-3: APMTQTTPLKTSWVNCSNMIDEIITHLKQPPLPLLDFNNLNGEDQDILMENNLRRPNLEAFNRAVKSLQNASAIESILKNLLPCLPLATAAPTRHPIHIKAGDWNEFRRKLTFYLVTLENAQAQQTTLSLAIF
stimulation of monocyte adherence (monocytes; FIG. 3): more potent than the wild type IL-3
Relative biological activity, MONOCYTE (monocytes; concentration of IL-3 mutant giving 50% of biological activity compared to that of wild type IL-3): 2100
